Results on nine substances are retold here after paper PMC5861437.

Experiment [1] addresses H-subunit of the restriction endonuclease CglI (H.CglI), wild type (Corynebacterium glutamicum). The experiment is described as follows: SEC + other: SAXS.
For experiment [2], the target named is H.CglI H282A (H/H motif mutant) (Corynebacterium glutamicum). Put plainly: SEC.
Experiment [3] has as its target H.CglI H282A + H290A (H/H motif double mutant) (Corynebacterium glutamicum). The experiment is described as follows: SEC. A general note: In gel filtration, larger molecules generally elute earlier.
The target of experiment [4] is H.CglI H290A (H/H motif mutant) (Corynebacterium glutamicum). Put plainly: SEC.
The target of experiment [5] is H.CglI L1 (V169A), Loop 163–172 mutant (Corynebacterium glutamicum). Put plainly: SEC.
Experiment [6] deals with H.CglI Q405A (Motif VI mutant) (Corynebacterium glutamicum). The experiment is described as follows: SEC.
Experiment [7] addresses H.CglI R379A (Motif V mutant) (Corynebacterium glutamicum). The experiment is described as follows: SEC.
The target in experiment [8] is H.CglI R408A (Motif VI mutant) (Corynebacterium glutamicum). The experiment is described as follows: SEC.
Experiment [9] has as its target H.CglI ΔL (a deletion of the residues 165–172), Loop 163–172 mutant (Corynebacterium glutamicum). Put plainly: SEC.

One may read the stoichiometry N as a count of units in the complex or per binding partner. As for “H-subunit of the restriction endonuclease CglI (H.CglI), wild type (natural protein)”, in [1], the stoichiometry N worked out at 2.
With “H.CglI H282A (H/H motif mutant) (natural protein)”, the stoichiometry N in [2] was 2.
“H.CglI H282A + H290A (H/H motif double mutant) (natural protein)”: the stoichiometry N in experiment [3] worked out at 2.
In the case of “H.CglI H290A (H/H motif mutant) (natural protein)”, the stoichiometry N in experiment [4] came out at 2.
In [5], “H.CglI L1 (V169A), Loop 163–172 mutant (natural protein)” came in with a stoichiometry N of 2.
As for “H.CglI Q405A (Motif VI mutant) (natural protein)”, the stoichiometry N in [6] came to 2.
For the substance “H.CglI R379A (Motif V mutant) (natural protein)”, the stoichiometry N in experiment [7] was 2.
In experiment [8], “H.CglI R408A (Motif VI mutant) (natural protein)” came in with a stoichiometry N of 2.
“H.CglI ΔL (a deletion of the residues 165–172), Loop 163–172 mutant (natural protein)”: the stoichiometry N in experiment [9] came out at 2.
